Numbering of substitutions follows the chain as printed.
Experiments:
Assay in all cases: competitive phage ELISA
[1] = target: T1, IGF-I R50A (G1S-A70V background) displayed on phage (human; bacteriophage M13)
T1 construct: monovalent M13 phage display
T1 chain: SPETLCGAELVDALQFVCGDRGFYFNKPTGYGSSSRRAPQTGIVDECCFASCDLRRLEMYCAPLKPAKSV
How it was run: (§1)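 Phage, normalized to a maximal ELISA signal of 0.2-0.4 per mutant, were premixed with threefold serial dilutions of soluble competitor in 0.5% Tween 20/PBS and incubated 1 h at room temperature on immobilized target.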

[2] = target: T2, IGF-I L57A (G1S-A70V background) displayed on phage (human; bacteriophage M13)
T2 construct: monovalent M13 phage display; not shown: M13 gene III protein fragment (residues 249-406), the phage display carrier, and its junction to IGF-I
T2 chain: T1 chain with A50R, L57A
How it was run: as §1

[3] = target: T3, IGF-I D20A (G1S-A70V background) displayed on phage (human; bacteriophage M13, not fully specified; Displayed monovalently on M13 phage as a C-terminal fusion to the gene III fragment, which is left out of the letters.)
T3 construct: monovalent M13 phage display; not shown: Display carrier: M13 gene III fragment (residues 249-406) and its junction
T3 chain: T1 chain with D20A, A50R
How it was run: as §1

[4] = target: T4, IGF-I T29A (G1S-A70V background) displayed on phage (human; bacteriophage M13)
T4 construct: monovalent M13 phage display; not shown: M13 gene III fragment (residues 249-406, display partner) and the junction to it
T4 chain: T1 chain with T29A, A50R
How it was run: as §1

[5] = target: T5, IGF-I F16A (G1S-A70V background) displayed on phage (human; bacteriophage M13)
T5 construct: monovalent M13 phage display
T5 chain: T1 chain with F16A, A50R
How it was run: as §1

[6] = target: T6, IGF-I E58A (G1S-A70V background) displayed on phage (human; bacteriophage M13)
T6 construct: monovalent M13 phage display; not shown: M13 gene III protein fragment (residues 249-406), the phage display carrier, and its junction to IGF-I
T6 chain: T1 chain with A50R, E58A
How it was run: as §1

[7] = target: T7, des(1-2)-IGF-I displayed on phage (human; bacteriophage M13)
T7 construct: range 249-406; monovalent M13 phage display
How it was run: as §1

[8] = target: T8, IGF-I V17A (G1S-A70V background) displayed on phage (human; bacteriophage M13)
T8 construct: monovalent M13 phage display
T8 chain: T1 chain with V17A, A50R
How it was run: as §1

[9] = target: T9, Ala(1-3)-IGF-I displayed on phage (human; bacteriophage M13, UniProt P69168 267-424)
T9 chain: T1 chain with S1A, P2A, E3A, A50R
How it was run: as §1

[10] = target: T10, IGF-I K65A (G1S-A70V background) displayed on phage (human; bacteriophage M13)
T10 construct: monovalent M13 phage display; not shown: M13 gene III protein fragment (residues 249-406), the phage display carrier, and its junction to IGF-I
T10 chain: T1 chain with A50R, K65A
How it was run: as §1

[11] = target: T11, IGF-I L10A (G1S-A70V background) displayed on phage (human; bacteriophage M13)
T11 construct: monovalent M13 phage display
T11 chain: T1 chain with L10A, A50R
How it was run: as §1

[12] = target: T12, IGF-I G19A (G1S-A70V background) displayed on phage (human; bacteriophage M13)
T12 construct: monovalent M13 phage display
T12 chain: T1 chain with G19A, A50R
How it was run: as §1

[13] = target: T13, IGF-I L64A (G1S-A70V background) displayed on phage (human; bacteriophage M13)
T13 construct: monovalent M13 phage display; not shown: M13 gene III protein fragment (residues 249-406), the phage display carrier, and its junction to IGF-I
T13 chain: T1 chain with A50R, L64A
How it was run: as §1

B1: human IGFBP-1 (other, UniProt P08833 26-259, looked up)
chain: APWQCAPCSAEKLALCPPVSASCSEVTRSAGCGCCPMCALPLGAACGVATARCARGLSCRALPGEQQPLHALTRGQGACVQESDASAPHAAEAGSPESPESTEITEEELLDNFHLMAPSEEDHSILWDAISTYDGSKALHVTNIKKWKEPCRIELYRVVESLAKAQETSGEEISKFYLPNCNKNGFYHSRQCETSMDGEAGLCWCVYPWNGKRIPGSPEIRGDPNCQIYFNVQN
notes: secreted recombinant protein purified from conditioned medium
[1]
  IC50: 16.2 nM
[2]
  IC50: 21.8 nM
[3]
  IC50: 8.4 nM
[4]
  IC50: 7.3 nM
[5]
  IC50: 57.8 nM
[6]
  IC50: 11.9 nM
[7]
  IC50: 5 nM
[8]
  IC50: 42.9 nM
[9]
  IC50: 90.4 nM
[10]
  IC50: 12.4 nM
[11]
  IC50: 311 nM
[12]
  IC50: 11 nM
[13]
  IC50: 12.1 nM
